Results on one molecule are retold here after patent US20250051407A1, “De novo designed sequence-specific DNA binding proteins” (University of Washington, priority 2023, published 2025).

Assay [1] deals with synthetic promoter containing the designed DBP binding sites controlling YFP. Put plainly: Transcriptional repression assay (NOT gate, YFP) in E. coli. Type of assay: cell-based, Escherichia coli. Conditions: IPTG induction (1 mM), flow cytometry. The source says: We next tested the ability of the designed DBPs to function in cells to regulate transcription. We constructed candidate NOT gates (38) to assay transcriptional repression in Escherichia coli, where the input is a designed DBP under control of the IPTG-inducible PTac promoter and the output is yellow fluorescent protein (YFP) expression driven by a promoter incorporating each DBP's DNA binding site. […] To increase avidity and bulk, we fused the DBPs to the homodimerization domain of the TetR protein (39), using RFdiffusion (40) and ProteinMPNN sequence design to generate rigid linkers that orient the DBP domain of each dimer unit on a DNA target containing two palindromic binding sites. For DBPs 48, 69, and 57, we selected 96 TetR fusions for experimental characterization in the NOT gate circuit. Upon initial screening, we observed modest repression for several designs and selected two for further validation (one incorporating DBP48, the other DBP57) (FIG. 8). […]

Assay [2] relates to synTF-specific cis-regulatory elements (CRE) in HEK293T cells. The assay can be described thus: Transcriptional activation by synTFs in HEK293T cells (ENGRAM). The format is cell-based. As to conditions: DBP fused to GCN4 dimerization domain and VP64; HEK293T cells expressing PEmax; dependent on spacing between motifs. The essentials: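 GCN4–VP64 fusions were co-transfected into PEmax-expressing HEK293T cells with barcoded pegRNA recorders driven by CREs of 4 palindromic repeats (spacings 1, 3 or 5 bp), with a TCF-LEF recorder as control (ratio 2:2:2:1). After 2 days, the HEK3 DNA TAPE was sequenced. Activation is given as barcode fold change versus control, in triplicate.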

B1: DBP48: designed DNA-binding protein, SEQ ID NO: 22, DNA target D (protein)
chain: MTPEEIAEAKRIGKEVKERRKELGLTQRELAEKLGVSRSTVSDIENGRRLPSEELLKKIKEILGV
For the molecule B1, the “Fold repression of YFP by single DBP domains and tandem linked DBP domains” value in assay [1] is “not observed”. Also, the “Fold activation of synTFs measured as normalized barcode abundance in the DNA TAPE” value in assay [2] is “didn't show detectable activation”.
